In general, IC50 refers to the concentration that inhibits the measured activity by half. A higher IC50 goes with lower potency.

The target of the test is T1, human GRP receptor (human, UniProt P30550 1-384).
T1 construct: also called Gastrin-releasing peptide (GRP) receptor; GRP receptors
Briefly: binding affinity (IC50); assay format, labelled ligand and receptor source not described.

T1 sequence (P30550 whole entry): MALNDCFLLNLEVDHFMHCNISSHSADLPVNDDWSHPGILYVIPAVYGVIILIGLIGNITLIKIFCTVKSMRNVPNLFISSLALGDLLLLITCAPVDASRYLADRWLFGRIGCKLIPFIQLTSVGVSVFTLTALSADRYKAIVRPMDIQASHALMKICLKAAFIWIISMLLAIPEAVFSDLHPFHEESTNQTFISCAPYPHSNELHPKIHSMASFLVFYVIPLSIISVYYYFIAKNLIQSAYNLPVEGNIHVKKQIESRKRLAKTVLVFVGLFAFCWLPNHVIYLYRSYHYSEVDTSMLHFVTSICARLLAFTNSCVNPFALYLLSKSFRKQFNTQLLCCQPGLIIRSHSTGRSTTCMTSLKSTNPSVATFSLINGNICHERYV

B1: 3-CF3,4-F-Benzoyl-Arg-Ava-Gln-Trp-Ala-Val-NMeGly-His-Sta-Leu-NH2 (peptide)
peptide: RXQWAVGHXL
modifications: not fully specified; N-terminal 3-trifluoromethyl-4-fluoro-benzoyl group (F is 18F or 19F); Ava (5-aminovaleric acid) spacer; NMeGly (N-methylglycine); Sta (statine); C-terminal amide
notes: Synthetic bombesin analog
As for B1, the IC50 lay within 0.3 to 1.8 nM.

B2: 3-CN,4-F-Benzoyl-Arg-Ava-Gln-Trp-Ala-Val-NMeGly-His-Sta-Leu-NH2 (peptide)
peptide: RXQWAVGHXL
modifications: not fully specified; N-terminal 3-cyano-4-fluoro-benzoyl group (F is 18F or 19F); Ava (5-aminovaleric acid) spacer; NMeGly (N-methylglycine); Sta (statine); C-terminal amide
notes: Synthetic bombesin analog
Molecule B2 gave an IC50 of 1.9 to 2.7 nM.

B3: 4F,3CN-Bnz-Arg-Ava-Gln-Trp-Ala-Val-NMeGly-His(3Me)-Sta-Leu-NH2 (peptide)
peptide: RXQWAVGHXL
modifications: not fully specified; N-terminal 3-cyano-4-fluoro-benzoyl group (F is 18F or 19F); Ava (5-aminovaleric acid) spacer; NMeGly (N-methylglycine); His(3Me) (3-methylhistidine); Sta (statine); C-terminal amide
notes: Synthetic bombesin analog
Take B3: the IC50 was 2.3 nM.

B4: 3-CN,4-F-Benzoyl-Arg-Ava-Gln-Trp-Ala-Val-Gly-His(3Me)-Sta-Leu-NH2 (peptide)
peptide: RXQWAVGHXL
modifications: not fully specified; N-terminal 3-cyano-4-fluoro-benzoyl group (F is 18F or 19F); Ava (5-aminovaleric acid) spacer; His(3Me) (3-methylhistidine); Sta (statine); C-terminal amide
notes: Synthetic bombesin analog
Molecule B4 showed an IC50 of 1 nM.

The values are drawn from patent US20090317326A1 (published 2009).
